From the nanobody polyreactivity screen of Harvey et al. (2022)

Assay: yeast display, Sf9 membrane polyspecificity reagent, FACS + sequencing; frameworks hold sequencing errors
In short: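 Polyreactivity labels are assigned by the sorting gate from which each nanobody was recovered. The gates were low and high (top ~1%), set on anti-HA fluorescence for expression and streptavidin fluorescence for reagent binding. Before sorting, galactose-induced (36–48 hours) yeast display cells were stained for 1 hour at 4 °C with 10% biotinylated, detergent-solubilized Sf9 membrane reagent.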

QVQLVESGGGLVQAGGSLRLSCAASGFTFTYYTMGWYRQAPGKERELVAGISRSGGSTYYADSVKGRFTISRDNAKNTVYLQMNSLKPEDTAVYYCAAVVRSYSDRYDYWGQGTQVTVSS
polyreactivity (PSR sort gate): high polyreactivity

QVQLVESGGGLVQAGGSLRLSCAASGRTSFYNAMGWYRQAPGKERELVAAISYRGTRTYYADSVKGRFTISRDNAKNTVYLQMNSLKPEDTAVYYCAKDSGYYTADDYDYWGQGTQVTVSS
polyreactivity (PSR sort gate): low polyreactivity

QGQLVESGGGLVHAGVSLRLSCAASGSTFQPYAMGWNRQAPGKERELVAAINWSGGGTYYADSVKGRFTISRDNAKNTVYLQMNSLKPVDTAVYYCAAEVYTYWALNTWRYDYWGQGTQVTVSS
polyreactivity (PSR sort gate): high polyreactivity

QVQLVESGGGLVQAGGSLRLALLTPDLPSTINDMGWYRQAPGKERELVAAITRGGSTNYADSVKGRFTISRDNAKNTVYLQMNSLKPEDTAVYYCAAPSAGWRDGGDYWGHGTQVTVSS
polyreactivity (PSR sort gate): low polyreactivity

QVQLVESAGGLVQAGGSLRLSCAASGSTFDYYAMGWYRQAPGKERELVAAISRTGGRTYYADSVKGRFTISRDNAKNTVYLQMNSLKPEDTAVYYCATRNGRQYSVSYRYYYWGQGTQVTVSS
polyreactivity (PSR sort gate): low polyreactivity

QVQLVESGGGLVQAGGSLRLSCAASGFTLRLNAMGWYRQAPGKERELVAAITTSDDGTYYADSVKGRFTISRDNAKNSVYLQLNSLKPEDTAVYYCAADYYSVLYDYWGQGTQVTVSS
polyreactivity (PSR sort gate): low polyreactivity

QVQLVESGGGLVQAGGSLRLSCAASGRIFGFYTMGWYRQAPGKERELVAVINRGGRTYYADSVKGRFTISRDNAKNTVYLQMNSLKPEDTAVYYCAADYYTQGAYRGMDYWGQGTQVTVSS
polyreactivity (PSR sort gate): high polyreactivity

QVQLVESGGGLVQAGGSLRLSCAASGSTFFYNAMGWSRQAPGKERELVAAIRFSGGSTRYADSVKGRFTISRDNAKNTVYLQMNSLKPEDTAVYYCNARGFRESIWYQYDYWGQGTQVTVSS
polyreactivity (PSR sort gate): high polyreactivity

QVQLVESGGGLVQAGGSLRESCAASGRIFYGNAMGCYRQAPVKERELVAAISSGTSTNYADSVKGRFTISRDNAKNTVYLEMNSLKPEDTGVYYCAAGSYSRYLYSLYFDFDYWGQGTQVTVSS
polyreactivity (PSR sort gate): low polyreactivity

QVQLVESGGGLVQAGGSLRLSCAASGRIFSQYAMGWYRQAPGKERELVAAISSRGGRTYYADSVKGRFTISRDNAKNTVYLQMNSLKPEDTAVYYCAAVIRSRYSYYEYDYWGQGTQVTVSS
polyreactivity (PSR sort gate): high polyreactivity

QVQLVESGGGLVQAGGSLRLSCAASGIFLKYAKGWYRPAPGKERELVPAIRKRGGSTYYADSVKGRFTISRDNAKNTVYLQMNSLKPEDTAVYYCATRYTYHPGSAGFDYWGQGTQVTVSS
polyreactivity (PSR sort gate): high polyreactivity

QVQLVESGGGLVQAGGSLRLSCAASGRTFANNAMGSYRPAPGKAREWVASISITTSTYYADSVKGRFTISRDNAKITVYLQLNSLKPEDTPVYYCAAYYFIHAGPWEFDYWGQGTQVTVSS
polyreactivity (PSR sort gate): low polyreactivity

QVQLVESGGGLVQAGGSLRLSCAASGIIFNFNAMGWYSQAPGKERELVAGISYGGGRTYYADSVKGRFTISRDNAINTVYLQMNSLKPEDTAFYYCNKYGLGIYRGYYWGQGTQVTVSS
polyreactivity (PSR sort gate): high polyreactivity

QVQLVESGGGLVQAGGSLRLSCAASGFTFLGYVMGWYRQAPGKEREFVADITESGGRTYYADSVKGRFTISRDNAKNTVYLQMNSLKPEDTAVYYCAAELSYWGYYYSFDYWGQVTQVTVSS
polyreactivity (PSR sort gate): low polyreactivity

QVQIVESGGRLVQAGGSLRLSCAASGSIFVWYAMGWYRQAPGKERELVSRITSGGRTNYADSVKGRFTISRDNAKNTVYLQMNSLKPEDTAVYYCAAGRVSWSPYYYWGQATQVTVSS
polyreactivity (PSR sort gate): high polyreactivity

QVQLVESGGGLVQAGGSLRISCAASGFTFWRYALGWYRQAPGKERELVAAISTGGSTNYADSVKGRFTISRDNAKNTVYLQMNSLKPEDTAVYYCNRQWNFTPYRRNYWGQGTQVTVSS
polyreactivity (PSR sort gate): high polyreactivity

QVQLVETPGGLVQAGGSLRLSCAASGRIFAYNAMGWYRQEPGNERELVAAIDSGGDTNYADSVKGRFTISRDNAKNTVYLKMNSLKPEVTAVYYCWSRAAPPGWFYGTNDNYWGQGTQVTVSS
polyreactivity (PSR sort gate): low polyreactivity

QVQLVESGGGLVQAGGSLRLSCAASGGTINGNTMGWYRQAPGKERELVAVIDWSGGSTYYADSVKGRFTISRDNAKNTVYLQMNSLKPEDTAVNYCNADSDAQFREPKGMYYWGQGTQVTLSS
polyreactivity (PSR sort gate): low polyreactivity

QVQLVETGGGLVQAGGSLRLSCAASGITFVYYAMGWYRQAPGKERELVPSISSADNTNYADSVKGRFTISRDNAKNTVYLQMNSLKPEDTAVYYCAADFCWHLRHDSTGGYWGQGTQVTVSS
polyreactivity (PSR sort gate): low polyreactivity

QVQLVESGGGLVQAGGSLRLSCAASGFTLVGYAMGWYRQAPGKERELVADINYSGGRTYYADSVKGRFTISRDNAKNTVYLQMNSLNPEDTAVYYCNAAGALSWFYYGYDYWGQGTQVTVSS
polyreactivity (PSR sort gate): low polyreactivity

QVQLVESGGGLVQAGGSLRLSCAASGITFWTYAMGWYRQAPGKERELVAAISKSGGSTYYADSVKGRFTISRDNAKYNVYLQLKSLKPEDTAVYYCAAKGLRYRDIDYDYWGQGTQVTVSW
polyreactivity (PSR sort gate): low polyreactivity

QVQLVESGGGLVQAGGSLRLSCAASGFIFASNAMGWYRQAPGKERELVAAITRSGGITYYADSVKGRFTISRDNAKNTVYLQMNSLKPEDTAVYYCNKGRRTKNSAYYDYWGQGTQVTVSS
polyreactivity (PSR sort gate): high polyreactivity

QVQLVESGGGLVQAGGSLRISCAASARIFQVYGMGWYRQAPGKERELVASITYRGGSTYYADSVKGRFTISRDNAKNNVDLQMNSLKPEDTAVYYCAADGAFYASTEMDYWGQGTQVTVSS
polyreactivity (PSR sort gate): low polyreactivity

QVQLVESGGGLVQAGGSLRLSCAASGRNFYGNAMGWYRQAPGKERELVAAISSGTSTNYADSVKGRFTISRDNAKNTVYLQMNSLKPEDTAVYYCAAGSYSRYLYSLYFDFDYWGQGTQVTVSS
polyreactivity (PSR sort gate): low polyreactivity

QVQLVESGGGLVQAGGSLRLSCAASGSTFTHNGMGWYRQAPGKETELVASITWSGGSTYYAVSVKGRFTISRDNAKNTVYLQMNSLKPEDNAVYYCASDAKLYITGFDYWGQGTQVTVSS
polyreactivity (PSR sort gate): low polyreactivity

QVQLVESAGGLVQAGGSLRLSCAASGFTFREYAMGWYRQAPGKERELVADIDWSGGSTYYADSVKGRFTISRDNAKNTFYLQMNSLKPEDTAVYYCAKAYYPGVYWGQGTQVTVSS
polyreactivity (PSR sort gate): high polyreactivity

QVQLVESGGGLVQAGGSLRLSCAASGRTFLVNAMGWYRQAPGKERELVAAITANGGNTYYADSVKGRFTISRDNAKNTVYLQMNSLKPEDTAVYYCAKLSHRGQSTGVDYWGQGTQVTVSS
polyreactivity (PSR sort gate): low polyreactivity

QVQLVESGGGLVQAGGSLRLSCAASGSTFGGYAMGWYRQAPGKEREFVAAISWRGGGTYYADSVKGRFTISRDNAMNTVYLQMNSLKPEDTAVYYCAAERRYTYQYNYWGQGTQVTVSS
polyreactivity (PSR sort gate): high polyreactivity

QVQLVESGGGLVQAGGSLRLSCAASGRTFCTNAMGWYRQAPGTERELVAVISGSTGSTYYADSVKGRFTISRDNAKNTVYLQMNSLKPEDTAVYYCAASYRNTGRWSYRGDYWGQGTQVTVSS
polyreactivity (PSR sort gate): high polyreactivity

QVHLVESWGGLVQAGGSLRLSCAASGSIFYYYAMGWYRLAPGKERELVAAITSGGSTYYADSVKGRFTISRDNAKNTVYLQMNSLKPEDTAVYYCAAVFYAAYLRYVWYSYDYWGQGTQVTVSS
polyreactivity (PSR sort gate): low polyreactivity

QVQLVESGGGLVQAGGSLRLSCAASGITFASNPMGWYRQAPGKERELVAAITRGDNTYYADSVKGRFTISRDNAKNTVYLQMNSLKPEDTAVYYCATEGYQIQYEHDYWGQGTQVTVSS
polyreactivity (PSR sort gate): low polyreactivity

QVQLVESGGGLVQAGGSLRLSWAASGFTFRRNAMGWYRQAPGKEREFVAAITRSGGSTYYADSVKGRFTISRDNAKNTVYVHMNSLKPEDTAVYYCAKERPTDRYPSDEYWGQGTQVTVSS
polyreactivity (PSR sort gate): high polyreactivity

QVQLVESGGGLVQAGGSLRLSCAASGRIFRFYAMGWYRPAPGKERELVAAISWNGGRTYYAVSVKGRFTISRDNAKNTVYLQMNSLKPEVTAVYYCATEFYYHWYSPFDYWGQGTQVTVSS
polyreactivity (PSR sort gate): high polyreactivity

QVQLVESGGGLVQAGGSLRLSCAASGRTIRLYAMGWYRQAPGQERELVAAITRGGRTNYADSVKGRFTISRDNAKNTVYLQMNSLKPEDTAVYYCAARYVERHTDYYYWGQGTQVTVSS
polyreactivity (PSR sort gate): low polyreactivity

QVQLVESWGGLVLAGGRLRLSCAASGSTFPYNAMGWYRQAPGKERELVAVISQRGGSTYYADSLKGRFTISRDNAKNSVYLQMKSLKPEDTAVYYCAAEYIVTYGYDYWGQGTQVTVSS
polyreactivity (PSR sort gate): high polyreactivity

QVQLVESGGGLVQAGGSLRLSCAASGSTFRIYAMGWYRQAPGKERELVAAISSGGRTNYADSVKGRFTISRDNAKNTVYLQMNSLKPEDTAVYYCNAVFLPTYHFDYWGQGTQVTVSS
polyreactivity (PSR sort gate): high polyreactivity

QVQLVESGGGLVQAGGSLRLSCAASGRTFVNYAMGWYRQAPGKERELVAAISGGGGTNYADSVKGRFTISRDNAKNTVYLQMNSLKPEDTAVYYCAADTNGYEFDYWGQGTQVTVSS
polyreactivity (PSR sort gate): low polyreactivity

QVQLVESGGGLVQAGGSLRLSCAASGVIFDFNAMGWYRQAPGKERELAASISRSGGSTYYADSVKGRFTISRDNAKNTVYLQMNSLKPEDTAVYYCAKASKGQYRFDYWGQGTQVTVSS
polyreactivity (PSR sort gate): low polyreactivity

QVQLVESGGGLVQAGGSLRLICAASVSIFKAYAMGWYRQAPGKEMELVARIRYRGGSTYYADSVKGRFTISRDNAKNTVYLQMNSLKPEDTAVYYCAARFSPYHTDRGDYWGQGTQVTVSS
polyreactivity (PSR sort gate): high polyreactivity

QVQLVESGGGLVQAGGSLRLSCAASGRIYWLYAMGWYRQAPGKERELVAAITGIGGSTYYADSVKVRFTISRDNAKNTVYLQMNSLKPEDTAVYYCAARNPASTAWMNYWGQGTQVNVSS
polyreactivity (PSR sort gate): low polyreactivity

QVQLVESGGGLVQAGGSLRLTCAASGNTFYGYSKGWYRQATGKERELVASISLSGDSTYYADSVKGRFTISRDNAKNTVYLQLNSLKPEDTAVYYCAGVYTYPLGYYHYTYDYWGQGTQVTVSS
polyreactivity (PSR sort gate): low polyreactivity

QVQLVESGGGLVQAGGSLRLSCAASGSTFYSYAMGWYRQAHGQERELVAAISYSGGSTYYADSVKGRFTISRDNAKNTVYLQMNSLKPADTAVYYCNARAVYPAGYAYDYWGQGTQVTVSS
polyreactivity (PSR sort gate): high polyreactivity

QVQLVESGGGLVQAGGSLRLSCAASGYTFAGYAMGWYRQAPGKERELVAAISRNGGTTYYADSVKGRFTISRDNAKNTVYLQMNSLKPEDTADYYCNKRGWYSVYRRDYWGQGTQVTVSS
polyreactivity (PSR sort gate): high polyreactivity
